From the Human Domainome abundance scans (Beltran et al. 2025)

B1: Poly(rC)-binding protein 1, residues 278 to 350; numbered along this chain, Q15365 (parent)
chain: TQTTHELTIPNNLIGCIIGRQGANINEIRQMSGAQIKIANPVEGSSGRQVTITGSAASISLAQYLINARLSSE

Variants of: B1
Experiment: abundance fitness (aPCA) (normalised: wild type 0, dead -1); higher = more abundant; growth selection in yeast, the domain comes from the species named
Details: Homo sapiens

Abundance fitness, by site and new letter:
G15: W -0.14; T -0.03; Q -0.162; Y -0.046; D 0.002; I -0.751; S -0.035; A -0.092; M 0; H -0.072; C -0.353; E -0.062; R -0.136; K -0.083; N 0.016; V -0.526; L -0.465; F -0.438
G19: L -0.815; A -0.481; Q -0.532; K -0.194; D -0.321; I -0.583; V -0.991; H -0.833; T -0.732; M -0.774; S -0.473; N -0.655; W -0.831; R -0.609; P -0.423; E -0.431
R20: K 0.048; W -0.188; F 0.1; V -0.031; Y 0.019; E 0.012; S -0.082; M -0.138; G -0.173; T -0.167; Q -0.008; A 0.028; D 0.042; C -0.04; P 0.155; L -0.035; N 0.27; I -0.074; H 0.139
I25: C -1.01; L -0.072; S -0.674; R -0.803; N -0.931; Q -0.564; P -0.84; G -0.58; W -0.622; M -0.169; H 0.296; V -0.308; A -0.565; D -0.908; T -0.367; K -0.873; F -0.539
I17: Y -0.665; Q -0.878; F -0.177; W -0.663; C -0.928; A -0.715; K -1.09; S -0.733; P -1.17; G -0.585; M -0.562; D -0.506; E -0.782; T -0.6; V -0.106; H -0.831; L -0.022; R -0.98
G22: R -0.271; T -0.373; Y -0.383; D -0.249; E 0.137; M -0.205; P -0.583; K -0.329; Q -0.228; C -0.113; V -0.703; S 0.01; L -0.408; N 0.089; H -0.122; I -1.04
P10: W -0.915; V -0.707; L -0.597; M -0.868; C -0.577; Q -0.538; N -0.938; I -0.696; K -0.181; G -0.474; S -0.274; R -0.504; D -0.363; T -0.549; H -0.442; A -0.117; E -0.237
A23: L -0.22; D -0.079; K 0.067; V -0.09; H 0.102; N -0.167; R 0.102; Y -0.296; Q 0.05; I -0.115; P -0.401; E 0.056; M -0.128; F 0.044; W -0.419; C 0.018; G -0.069
L13: M 0.05; I -0.076; F -0.107; Y -0.07; C -0.21; S -0.041; P -0.959; D -0.012; H -0.051; E -0.06; K 0.062; N -0.228; Q 0.14; W -0.265; A -0.069; G -0.477; R -0.082; V -0.404; T -0.181
I9: W -0.847; H -0.039; F 0.066; S -0.885; P -0.835; Q -0.767; T -0.79; M -0.356; D -0.714; L -0.072; R -0.732; G -0.771; E -0.942; C -0.839; A -0.688; V 0.076; Y -0.567; N -0.805
L7: M 0.113; R -0.354; W -0.274; K -0.53; P -1.03; Y -0.436; E -0.331; N -0.803; Q -0.382; V -0.043; S -0.468; G -0.517; H -0.744; F -0.051; I -0.013; T -0.447
Q21: R -0.012; H -0.032; D -0.134; W -0.339; I -0.844; T -0.207; L -0.437; N 0.052; S -0.09; C -0.281; P -0.568; E -0.09; G -0.106; M -0.322; K 0.081; F -0.236; Y -0.217
N12: R 0.027; V -0.306; G -0.282; K -0.004; H -0.009; S -0.022; L -0.35; T -0.053; D -0.272; C -0.267; M -0.316; E -0.202; P -0.186; A -0.148; F -0.459
I14: P -0.647; R -0.573; M -0.118; H -0.485; Q -0.73; C -0.252; T -0.17; V -0.116; A -0.228; N -0.762; E -0.769; F -0.378; L -0.115; D -0.876; S -0.367; K -0.855; G -0.948; W -0.689
T8: C 0.098; D 0.144; H 0.017; L -0.032; V 0.207; R -0.028; A -0.124; N 0.081; W -0.064; I -0.008; E 0.069; S -0.074; Q -0.076; M 0.028; K -0.128; Y 0.05; G -0.559
C16: A 0.059; M 0.092; Y -0.209; P -0.045; G -0.116; F -0.031; H -0.141; E -0.038; R 0.138; V -0.083; Q 0.01; D -0.063; L -0.107; K 0.093; T 0.131; W -0.092; I 0.266; S -0.042
N26: A -0.002; G -0.27; F -0.354; D -0.08; E -0.035; C -0.196
N24: H -0.049; C -0.196; L -0.134; D -0.003; A 0.007; Q 0.002; S -0.033; G -0.04; W -0.161; R 0.066; Y 0.01; I -0.06; E -0.01; P -0.088; M 0.038; V -0.048; K 0.076; F -0.13
I18: N -0.156; Q -0.756; V -0.367; F -0.321; G -0.565; P -0.808; D -0.39; H -0.767; E -0.118; R -0.636; W -0.232; C -0.616; K -0.435; T -0.218; L -0.355; A -0.316; S -0.433
N11: P -0.347; S -0.09; A -0.075; D 0.186; W -0.425; H -0.025; I -0.21; F -0.061; Y -0.549; L -0.473; V -0.352; T -0.169; E -0.045; R -0.264; K -0.171; C -0.165; M -0.28
